Assay results published in PMC9943658 (Nucleic Acids Research, 2023).

B1: His-T7-hnRNP C1 ΔRRMΔBASIC (natural protein)
chain: MASNVTNKTDPRSMNPKVNRGKAGVKRSAAEMYGSSFDLDYDFQRDYYDRMYSYPARVPPPPPIARALQAIKKELTQIKQKVDSLLENLEKIEKEQSKQAVEMKNDKSEEEQSSSSVKKDETNVKMESEGGADDSAEEGDLLDDDDNEDRGDDQLELIKDDEKEAEEGEDDRDSANGEDDS
B2: His-T7-hnRNP C1 wild type (natural protein, UniProt P07910-2 1-293, looked up)
chain: MASNVTNKTDPRSMNSRVFIGNLNTLVVKKSDVEAIFSKYGKIVGCSVHKGFAFVQYVNERNARAAVAGEDGRMIAGQVLDINLAAEPKVNRGKAGVKRSAAEMYGSSFDLDYDFQRDYYDRMYSYPARVPPPPPIARAVVPSKRQRVSGNTSRRGKSGFNSKSGQRGSSKSGKLKGDDLQAIKKELTQIKQKVDSLLENLEKIEKEQSKQAVEMKNDKSEEEQSSSSVKKDETNVKMESEGGADDSAEEGDLLDDDDNEDRGDDQLELIKDDEKEAEEGEDDRDSANGEDDS
B3: His-T7-hnRNP C1 ΔBASIC (natural protein)
chain: MASNVTNKTDPRSMNSRVFIGNLNTLVVKKSDVEAIFSKYGKIVGCSVHKGFAFVQYVNERNARAAVAGEDGRMIAGQVLDINLAAEPKVNRGKAGVKRSAAEMYGSSFDLDYDFQRDYYDRMYSYPARVPPPPPIARALQAIKKELTQIKQKVDSLLENLEKIEKEQSKQAVEMKNDKSEEEQSSSSVKKDETNVKMESEGGADDSAEEGDLLDDDDNEDRGDDQLELIKDDEKEAEEGEDDRDSANGEDDS

Target: the molecule itself
Test: SEC

Stoichiometry N, 4:
B1
B2
B3
